The labels stand for the following.
T1: human TIGIT expressed on cells (stably transfected Jurkat cells) (human, UniProt Q495A1 22-244)
T1 construct: Also used here for TIGIT on primary T cells in the MLR; also called h-TIGIT; T cell immunoreceptor with Ig and ITIM domains
T1 sequence: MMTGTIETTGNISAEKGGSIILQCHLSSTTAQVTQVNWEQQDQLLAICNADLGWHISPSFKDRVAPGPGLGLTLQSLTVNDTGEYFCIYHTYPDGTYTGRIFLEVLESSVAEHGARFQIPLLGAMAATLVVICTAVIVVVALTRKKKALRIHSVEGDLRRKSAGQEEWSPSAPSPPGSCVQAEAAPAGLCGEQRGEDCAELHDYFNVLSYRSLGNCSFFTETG

T2: recombinant human TIGIT extracellular domain (ECD) (human, UniProt Q495A1 22-138)
T2 construct: also called h-TIGIT ECD; recombinant human TIGIT ECD
T2 sequence: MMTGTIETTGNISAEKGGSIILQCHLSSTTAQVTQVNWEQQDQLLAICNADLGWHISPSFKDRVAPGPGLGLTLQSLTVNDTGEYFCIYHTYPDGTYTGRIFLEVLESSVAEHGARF

B1: 2A3 ML_DE (hotspot modified 2A3) (VHH)
VHH: QVQLVESGGGVVQPGRSLRLSCAASGGSFSSYPMGWFRQAPGKERESVAAISSDLRFTYYADSVKGRFTISRDNSKNTLYLQMNSLRAEDTAVYYCAARESGVGYYSRAQWYDYWGQGTLVTVSS
B2: 2A3 MI (hotspot modified 2A3) (VHH)
VHH: B1 VHH with L55I, E100D
B3: 2A3 ML (hotspot modified 2A3) (VHH)
VHH: B1 VHH with E100D
B4: 1A8 VHH (VHH)
VHH: B1 VHH with G27P, D54R, L55G, E100D, V103S
B5: 6F12 VHH (VHH)
VHH: B1 VHH with G27P, S30T, L55G, T58K, R99E, E100D, V103S
B6: 7F6 VHH (VHH)
VHH: B1 VHH with G27P, S28M, L55P, E100D, V103S
B7: 15A5 bivalent VHH antibody (Fc fusion, not shown: small tags and cut ends)
chain: QVQLVESGGGLVQAGGSLRLSCAASERTFSSFAMGWFRQAPGKEREVVAAIDPSGRYIYYKDSVKGRFTMSRDNAKSTVYLQMNSLKPDDTARYYCAARIRGEGYYTRSSFYHYWGQGTQVTVSS
B8: 3G6 bivalent VHH antibody (Fc fusion, not shown: small tags and cut ends)
chain: QVQLVESGGGLVQAGGSLSLSCAASGSIFGISVMGWYRQAPGEQRDLVATLTRAGLTTYGDSVKGRFSISRDSAKNTVYLQMNNLKPEDTAVYYCHANIMESAASTFGRYWGQGTQVTVSS
B9: 13H11 bivalent VHH antibody (Fc fusion, not shown: small tags and cut ends)
chain: QVQLVESGGGLVQAGGSLRLSCAASGLTFSMYAMGWFRQGPGKERESVAAISSDGRFTYYAASVKGRFTISKDNAKSAAFLQMNSLKPEDTAVYYCAARDSGSGYYSRAQWYDYWGQGTQVTVSS

Positions count from the first letter of the chain named.

The term EC50 (read off the curve) denotes the midpoint of the concentration-response curve. A low value points to an effect from little substance.

The target of one experiment is T1, human TIGIT expressed on cells (stably …). The experiment in a line: whole cell binding, flow cytometry. (A flow cytometer gives signals particle by particle.)
Take B1: the binding result is “binds”.

With B2, the binding result is recorded as “binds”.

B3: the binding result is “binds”.

For the next experiment, the target named is T2, recombinant human TIGIT extracellular …. The experiment in a line: ELISA on h-TIGIT ECD with VHH samples heated for 60 min at 25 to 70 °C. On the procedure:
(§1) FIGS. 6A and 6B depict thermostability tested for representative clones. The VHH antibody samples were heated from 25 to 70° C. for 60 min. Binding of heated samples to human TIGIT was examined using ELISA or whole cell binding. […] Y axis represents OD450 obtained from the ELISA assay. X axis represents temperature for the treatment. […] Y axis represents percentage of binding to h-TIGIT. X axis represents temperature for the treatment.
(§2) The thermostability of 12 representative clones was tested by heat treatment at 25 to 70° C. for 60 min, then the binding of the treated samples to human TIGIT was examined using ELISA and whole cell binding flow cytometry assays, the results of which are shown in FIGS. 6A and 6B. […] Bivalent 2A3 antibody (2A3-Fc) was constructed using human IgG1 CH2 and CH3 domains. The antibody was expressed in ExpiCHO cells and purified by protein A column. Epitope of 2A3-Fc binding to human TIGIT was studied using Octet binding assay in comparison with anti-TIGIT reference antibodies Reference Ab 1 and References Ab 2 (a reference anti-human-TIGIT antibody having the same amino acid sequences of Tiragolumab, which was synthesized in-house based on the disclosed sequences in U.S. 2017/0088613 A1). As shown in FIGS. 7A-7C, 2A3 clone bound to a different epitope compared to Reference Ab 1 and Reference Ab 2.
In the case of B4, the binding result is given as “binds”.

B5: the binding result is listed as “binds”.

On to B6, for which the binding result is on record as “binds”.

The target of the next experiment is T1, human TIGIT expressed on cells (stably …). The experiment in a line: flow cytometry on h-TIGIT transfected Jurkat cells, anti-human IgG Fc Alexa Fluor 488. An excerpt:
FIGS. 1A-1C depict whole cell binding of representative VHH bivalent antibodies to human TIGIT determined by flowcytometry assays. […] Y axis represents Mean Fluorescence Intensity of AlexaFlour 488. X axis represents antibody concentrations in nanomolar. 2B7, 1G1, 1C12, 3G6, 2B10, 3G7, 3G10, 13H11, and 15A5 are VHH clones of anti-human TIGIT. FIG. 1C is a schematic of the structure of a TIGIT VHH bivalent antibody.
Binding affinities of the bivalent clones to human TIGIT transfected Jurkat cells were confirmed by flowcytometry assays. Jurkat cells stably expressing human TIGIT and NFAT reporter gene were established. Specifically, Jurkat cells were transfected with human TIGIT expression vector by electroporation, and cells stably expressing human TIGIT were selected by 1 μg/ml puromycin during cell culture. Representative antibody clones were incubated at different concentrations with h-TIGIT stably expressing Jurkat cells (0.2×10^6/ml) in 100 μl/well in 96-well plate in FACS buffer (PBS with 1.5% FBS) for 30 min. After washing, Alexaflour 488 conjugated anti-human IgG Fc secondary antibody (Alexa Fluor® 488 AffiniPure Goat Anti-Human IgG, Fcγ fragment specific, Jackson labs, 1:500 dilution) was added and incubated for 30 min. After washing, mean fluorescence intensity was measured using CytoFlex (Beckman Coulter) by gating live cell population. Binding affinity was calculated using GraphPad Prism.
With B7, the “EC50 (read off the curve)” value was roughly 0.06 nM.

B8: the “EC50 (read off the curve)” value is roughly 0.8 nM.

B9: the “EC50 (read off the curve)” value was roughly 0.2 nM.

The target is the same in a further experiment. The experiment in a line: flow cytometry on h-TIGIT Jurkat cells (% binding) with VHH samples heated for 60 min at 25 to 70 °C. As for the experimental part:
as §1, §2
Take B4: the binding result was “binds”.

On to B5, for which the binding result is given as “binds”.

Consider B6, for which the binding result is on record as “binds”.

For the origin of these results see US20230060388A1 (SHANGHAI HENLIUS BIOTECH, published 2023).
